{"source": "patent US8158585B2", "about": "“Cross-β structure comprising amyloid-binding proteins and methods for detection of the cross-β structure, for modulating cross-β structures fiber formation and modulating cross-β structure-mediated toxicity” (CrossBeta Biosciences B.V., priority 2002, dated 2012)", "key": {"[1]": {"target": "T1, Aβ (Homo sapiens, UniProt P05067)", "T1 construct": "Peptide Aβ (1-40), containing amino acids as present in the described human Alzheimer peptide; purchased Pepscan, Inc. or peptide synthesis facility of the Netherlands Cancer Institute; host or cells: chemical synthesis", "T1 sequence (P05067 672-711)": "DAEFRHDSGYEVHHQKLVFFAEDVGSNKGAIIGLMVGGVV", "experiment": "Solid-phase binding ELISA of tPA, plasminogen and plasmin to coated Aβ", "conditions": "50 mM ε-aminocaproic acid", "procedure": "FIG. 3 is a set of graphs depicting binding of tPA, plasminogen and plasmin to Aβ. Aβ was coated onto plastic 96-well plates. Increasing concentrations of either (A) tPA or (B) plasmin(ogen) were allowed to bind to the immobilized peptide. After extensive washing, tPA and plasmin(ogen) binding was assessed by enzyme-linked immunosorbent assays using anti-tPA and anti-plasminogen antibodies. Binding of (C) tPA and (D) plasmin to Aβ in the presence of 50 mM ε-aminocaproic acid (ε-ACA) was assessed as in A and B.\nTo test whether tPA, plasminogen and plasmin bind Aβ, solid-phase binding assays were performed. Aβ was coated onto plastic 96-well plates and binding of the peptide to either plasmin(ogen) or to tPA was assessed by overlaying the coated peptide with increasing concentrations of either tPA, plasminogen or plasmin. Binding was assessed using specific antibodies to either plasmin(ogen) or to tPA by performing ELISA. […] However, activated plasminogen (plasmin) does bind to Aβ and does so with a kD of 47 nM. […] To test this, use was made of the lysine analogue ε-aminocaproic acid (εACA) and binding of plasmin and tPA to Aβ was tested in its presence. […] In contrast, εACA has no effect on the tPA-Aβ interaction (FIG. 3, Panel C). Thus, it was concluded that plasmin binds to free lysines that were generated during the incubation period, presumably via its lysine-binding Kringle domain(s). In line with this, the kD of plasminogen Kringle domain binding to free lysines in fibrin is similar to the kD for plasmin binding to Aβ."}, "[2]": {"target": "T2, albumin-g6p (Bos taurus, UniProt P02769)", "T2 construct": "Bovine serum albumin (BSA) fraction V pH 7.0; host or cells: bovine serum, fraction V", "T2 sequence (P02769 25-607)": "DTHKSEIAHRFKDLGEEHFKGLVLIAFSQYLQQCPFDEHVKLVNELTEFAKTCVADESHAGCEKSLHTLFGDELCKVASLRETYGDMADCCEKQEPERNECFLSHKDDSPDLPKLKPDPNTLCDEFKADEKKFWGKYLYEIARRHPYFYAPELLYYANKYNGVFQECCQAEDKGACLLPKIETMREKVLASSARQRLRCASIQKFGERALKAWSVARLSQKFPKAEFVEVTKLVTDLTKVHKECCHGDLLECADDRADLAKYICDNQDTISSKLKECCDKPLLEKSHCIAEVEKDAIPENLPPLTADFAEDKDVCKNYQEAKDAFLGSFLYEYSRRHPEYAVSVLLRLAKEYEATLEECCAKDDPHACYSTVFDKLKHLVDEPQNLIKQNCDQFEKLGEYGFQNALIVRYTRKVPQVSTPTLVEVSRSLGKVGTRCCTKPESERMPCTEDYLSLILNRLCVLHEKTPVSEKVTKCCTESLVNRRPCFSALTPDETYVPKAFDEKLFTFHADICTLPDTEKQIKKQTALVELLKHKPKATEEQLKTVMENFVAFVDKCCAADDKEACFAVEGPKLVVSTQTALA", "experiment": "Competitive binding of Thioflavin T and tPA to albumin-g6p (fluorescence, absorbance)", "parameters": "species or system bovine", "conditions": "increasing amounts of tPA", "procedure": "A solution of 430 nM albumin-g6p and 19 μM of Thioflavin T was incubated with increasing amounts of tPA, for one hour at room temperature. For blank readings, albumin-g6p was omitted. Samples were prepared in four-fold in 50 mM glycine-NaOH pH 9. Emission measurements were performed as described above.\nAlbumin-g6p (500 nM) and Thioflavin T (10 μM) were incubated with increasing amounts of tPA, in 50 mM glycine-NaOH pH 9, for one hour at room temperature. Absorbance measurements were performed at the albumin-g6p Thioflavin T absorbance maximum at 420 nm. Samples were prepared in four-fold. For blank readings, albumin-g6p was omitted in the solutions. Absorbance was read in a quartz cuvette on a Pharmacia Biotech Ultrospec 3000 UV/visible spectrophotometer (Cambridge, England)."}, "[3]": {"target": "T3, FXII binding to hAβ (1-40) (Homo sapiens, UniProt P05067)", "T3 construct": "Peptide Aβ (1-40), containing amino acids as present in the described human Alzheimer peptide; purchased Calbiochem (FXII); Pepscan or Netherlands Cancer Institute (peptide) 233490 (FXII)", "T3 sequence (P05067 672-711)": "as the sequence (P05067 672-711) above", "experiment": "Competitive FXII - tPA ELISA on coated hAβ (1-40)", "conditions": "2.5 nM FXII; concentration series up to 135 times the kD"}, "[4]": {"target": "T4, FXII binding to albumin-AGE (Bos taurus, UniProt P02769)", "T4 construct": "bovine serum albumin (fraction V, catalogue #A-7906); purchased Calbiochem (FXII); ICN or Sigma-Aldrich (albumin) 233490 (FXII); A-7906 (Sigma albumin)", "T4 sequence (P02769 25-607)": "as the sequence (P02769 25-607) above", "experiment": "Competitive FXII - tPA ELISA on coated albumin-AGE", "conditions": "15 nM FXII; concentration series up to 150 times the kD"}, "[5]": {"target": "T5, mΔIAPP (Mus musculus, UniProt P12968)", "T5 construct": "purchased Pepscan, Inc. or peptide synthesis facility of the Netherlands Cancer Institute; host or cells: chemical synthesis", "experiment": "Amyloid ELISA with tPA F-EGF-GST: non-amyloid control", "assay_type": "binding", "procedure": "In order to define the affinity of the purified tPA F-EGF-GST recombinant protein, ELISAs were performed with immobilized amyloid (poly)peptides and non-amyloid control ΔmIAPP. Twenty-five μg ml^−1 of Aβ, FP13, IAPP or ΔmIAPP was immobilized on Exiqon peptide immobilizer plates. A concentration series of tPA F-EGF-GST in the presence of excess εACA was added to the wells and binding was assayed using anti-GST antibody Z-5. As a control, GST (Sigma-Aldrich, St. Louis, Mo., USA, catalogue #G-5663) was used at the same concentrations."}, "[6]": {"target": "T2, albumin-g6p", "experiment": "ELISA: binding of tPA-F-GST and RPTPμ-GST to glycated albumin", "parameters": "species or system bovine", "conditions": "in the presence of excess εACA", "procedure": "(§1) Binding of tPA-F-GST and RPTPμ-GST to fibrous amyloids human Aβ (1-40) and albumin-[…] was assayed with an ELISA. In brief, human Aβ (1-40), albumin-[…], or buffer only, were coated on a peptide I Immobilizer or a protein I Immobilizer, respectively. Wells were incubated with the purified GST-tagged constructs or control medium and binding was detected using primary anti-GST monoclonal antibody 2F3 and RAMPO. The wells were also incubated with […] of tPA in the presence of 10 mM of εACA. Binding of tPA is independent of the lysyl binding site located at the kringle 2 domain. Binding of tPA was measured using primary antibody 374B and RAMPO. Experiments were performed in triplicate and blank readings of non-coated wells were substracted."}, "[7]": {"system": "anti-AGE1 binding to amyloid peptides (Aβ (1-40), IAPP)", "experiment": "Competitive ELISA: tPA and anti-AGE1 on immobilized Aβ (1-40) and IAPP", "conditions": "250 or 18 nM α-AGE1; 10 mM εACA", "procedure": "(§2) For ELISAs, amyloid compounds were immobilized on Exiqon peptide or protein Immobilizers (Vedbaek, Denmark), as described before. Anti-AGE antibodies and commercially available anti-Aβ (1-42) H-43 (Santa Cruz Biotechnology, Santa Cruz, Calif., USA) were diluted in PBS with 0.1% v/v Tween 20. Rabbit anti-human vitronectin K9234 was a kind gift of Dr. H. de Boer (UMC Utrecht) and was used as a negative control. For ELISAs with mouse polyclonal anti-albumin-AGE/Aβ, control serum with antibody elicited against an unrelated protein was used. Binding of mouse polyclonal anti-albumin-AGE/Aβ was performed using a dilution series of serum in PBS/0.1% Tween 20. For competitive binding assays with IAPP, anti-AGE1 was pre-incubated with varying IAPP concentrations. The IAPP fibers were spun down and the supernatant was applied in triplicate to wells of an ELISA plate coated with Aβ. Competitive binding assays with multiligand cross-β structure binding serine protease tPA were performed in a slightly different way. Coated Aβ and IAPP are overlayed with an anti-AGE1 or anti-Aβ (1-42) H-43 concentration related to the kD, together with a concentration series of tPA. A 10^7-10^4 times molar excess of lysine analogue εACA (10 mM) was present in the binding buffer in order to avoid binding of tPA to lysine residues of Aβ and IAPP, which would be independent of the presence of amyloid structures."}, "[8]": {"target": "T6, H-43 binding to immobilized IAPP (Homo sapiens, UniProt P10997)", "T6 construct": "purchased Pepscan, Inc. (The Netherlands) or peptide synthesis facility at the Netherlands Cancer Institute; host or cells: synthetic peptide", "T6 sequence (P10997 34-70 limits assumed)": "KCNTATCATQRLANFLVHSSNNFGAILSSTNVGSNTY", "experiment": "Competitive ELISA: tPA and H-43 on immobilized IAPP", "conditions": "100 nM H-43, concentration series of tPA", "procedure": "as §2"}, "[9]": {"target": "Aβ (1-40) (Homo sapiens, UniProt P05067)", "sequence (P05067 672-711)": "as the sequence (P05067 672-711) above", "experiment": "ELISA: binding of tPA-F-GST and RPTPμ-GST to human Aβ (1-40)", "parameters": "Peptide Aβ (1-40), containing amino acids as present in the described human Alzheimer peptide; purchased Pepscan, Inc. (The Netherlands) or peptide synthesis facility at the Netherlands Cancer Institute; host or cells: synthetic peptide", "conditions": "in the presence of excess εACA", "procedure": "as §1"}, "[10]": {"target": "T7, tPA-mediated plasminogen activation (Homo sapiens, UniProt P00750)", "T7 construct": "purchased Boehringer-Ingelheim (Germany)", "T7 sequence (P00750 36-562)": "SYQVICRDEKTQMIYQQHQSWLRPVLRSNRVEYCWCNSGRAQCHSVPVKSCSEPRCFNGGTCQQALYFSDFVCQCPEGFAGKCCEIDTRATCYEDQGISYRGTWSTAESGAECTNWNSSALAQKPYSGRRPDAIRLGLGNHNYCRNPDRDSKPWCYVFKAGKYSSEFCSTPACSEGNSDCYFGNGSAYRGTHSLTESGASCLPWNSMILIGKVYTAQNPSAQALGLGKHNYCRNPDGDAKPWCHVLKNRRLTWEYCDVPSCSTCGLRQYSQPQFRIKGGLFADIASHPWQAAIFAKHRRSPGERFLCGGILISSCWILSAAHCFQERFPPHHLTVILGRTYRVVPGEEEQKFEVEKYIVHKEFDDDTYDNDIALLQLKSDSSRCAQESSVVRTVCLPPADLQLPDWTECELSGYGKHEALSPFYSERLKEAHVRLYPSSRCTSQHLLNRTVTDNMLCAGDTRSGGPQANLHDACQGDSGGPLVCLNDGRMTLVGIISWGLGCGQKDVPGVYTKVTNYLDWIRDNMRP", "experiment": "Plasminogen activation assay", "assay_type": "biochemical", "conditions": "plasminogen 200 μg ml−1, tPA 200 pM, 5 μM co-factor; S-2251", "procedure": "Plasminogen (200 μg ml^−1) was incubated with tPA (200 pM) in the presence or the absence of a co-factor (5 μM of either endostatin, Aβ (1-40), or one the fibrin-derived peptides 85, 86 and 87). At the indicated time intervals, samples were taken and the reaction was stopped in a buffer containing 5 mM EDTA and 150 mM εACA. After collection of the samples, a chromogenic plasmin substrate S-2251 was added and plasmin activity was determined kinetically in a spectrophotometer at 37° C."}, "[11]": {"system": "neuronal cell death", "experiment": "Endostatin-induced cell death by methylene blue staining", "assay_type": "cell-based", "conditions": "precipitated form", "description": "FIG. 6 is a set of graphs illustrating that endostatin can form fibers comprising cross-β structure and stimulates plasminogen activation. […] Aβ is shown for comparison. Panel D is an analysis of endostatin-induced cell death by methylene blue staining. […] Direct cell death, but not cell detachment, is protected in the presence of sufficient glucose. Buffer prec. indicates control buffer."}, "[12]": {"system": "ΔmIAPP, albumin-control and Hb-control", "experiment": "ELISA: binding of human FXII to negative controls", "procedure": "(§3) The binding of human FXII (Calbiochem, La Jolla, Calif., USA, catalogue #233490) to amyloid (poly)peptides was tested. Prototype amyloid peptides human amyloid-β (1-40) (hAβ (1-40)) and human fibrin fragment α147-159 FP13, and glucose-6-phosphate glycated bovine albumin (albumin-advanced glycation end product (AGE)) and glucose-6-phosphate glycated human hemoglobin (Hb-AGE), all containing cross-β structure, as well as negative controls mouse A islet amyloid polypeptide (ΔmIAPP), albumin-control and Hb-control, all three lacking the amyloid-specific structure, were coated to ELISA plates and overlayed with a concentration series of human factor XII. Binding of FXII was detected using a rabbit polyclonal anti-FXII antibody (Calbiochem, La Jolla, Calif., USA, catalogue #233504) and peroxidase-labeled swine anti-rabbit IgG. Wells were coated in triplicate. The FXII binding buffer included 10 mM HEPES pH 7.3, 137 mM NaCl, 11 mM D-glucose, 4 mM KCl, 1 mg ml^−1 albumin, 50 μM ZnCl2, 0.02% (m/v) NaN3 and 10 mM ε-amino caproic acid (εACA). Lysine analogue εACA was added to avoid putative binding of FXII to cross-β structure via the FXII kringle domain. In addition, binding of FXII to hAβ (1-40) and the prototype amyloid human amylin fragment hΔIAPP was tested using dot blot analysis. […]"}, "[13]": {"target": "T8, hAβ (1-40) (Homo sapiens, UniProt P05067)", "T8 construct": "Peptide Aβ (1-40), containing amino acids as present in the described human Alzheimer peptide; purchased Pepscan, Inc. or peptide synthesis facility of the Netherlands Cancer Institute; host or cells: chemical synthesis", "T8 sequence (P05067 672-711)": "as the sequence (P05067 672-711) above", "experiment": "Dot blot: binding of FXII to hAβ (1-40)", "conditions": "2 nM FXII", "procedure": "as §3"}, "[14]": {"target": "T9, human amylin fragment hΔIAPP (Homo sapiens, UniProt P10997)", "T9 construct": "purchased Pepscan, Inc. or peptide synthesis facility of the Netherlands Cancer Institute; host or cells: chemical synthesis", "experiment": "Dot blot: binding of FXII to hΔIAPP", "conditions": "2 nM FXII", "procedure": "as §3"}, "[15]": {"target": "T5, mΔIAPP", "experiment": "Dot blot: binding of FXII to mΔIAPP", "conditions": "2 nM FXII", "procedure": "as §3"}}}
{"substance": "tPA: Alteplase (recombinant tissue-type plasminogen activator, tPA) from Boehringer-Ingelheim", "values": [{"measurement": "binding to Aβ in the presence of εACA", "setting": "[1]", "result": "no effect"}, {"measurement": "competition with binding of Thioflavin T to glycated albumin", "setting": "[2]", "result": "competed"}, {"measurement": "inhibition of FXII binding to hAβ (1-40)", "setting": "[3]", "result": "efficiently inhibits"}, {"measurement": "inhibition of FXII binding to albumin-AGE", "setting": "[4]", "result": "effectively abolished"}, {"measurement": "binding to non-amyloid mΔIAPP", "setting": "[5]", "result": "No binding"}, {"measurement": "binding of control tPA to albumin-g6p", "setting": "[6]", "result": "bound"}, {"measurement": "inhibition of anti-AGE1 binding to amyloid peptides", "setting": "[7]", "result": "inhibited"}, {"measurement": "inhibition of H-43 binding to immobilized IAPP", "setting": "[8]", "result": "effectively diminished"}, {"measurement": "binding of control tPA to human Aβ (1-40)", "setting": "[9]", "result": "bound"}]}
{"substance": "endostatin", "values": [{"measurement": "stimulation of tPA-mediated plasmin formation", "setting": "[10]", "result": "stimulating activity"}, {"measurement": "induction of cell death", "setting": "[11]", "result": "capable of efficiently inducing cell death"}]}
{"substance": "FXII: human FXII (Calbiochem, catalogue #233490)", "values": [{"measurement": "binding to negative controls ΔmIAPP, albumin-control and Hb-control", "setting": "[12]", "result": "does not bind"}, {"measurement": "binding to spotted hAβ (1-40)", "setting": "[13]", "result": "specifically bound"}, {"measurement": "binding to spotted hΔIAPP", "setting": "[14]", "result": "specifically bound"}, {"measurement": "binding to spotted mΔIAPP", "setting": "[15]", "result": "No binding"}]}
